According to patent US20110129459A1 (Chugai, published 2011):
Several values for one entry are separate records, joined by “and”; a condition that tells them apart may be missing. Identical values can stand only once. Like-named read-outs stand apart in the source and are kept apart here.

Experiments:
[1] = molecular target: T1, cytoplasmic domain-lacking human NR10 on CHO cells (hNR10-expressing CHO cells) (human, UniProt Q8NI17 20-553); assay: FMAT competition on hNR10-expressing CHO cells: antibody titrated against FMAT Blue-labeled hIL-31; FL1 = cell-bound labeled hIL-31
T1 construct: also called NR10-expressing cells
T1 sequence: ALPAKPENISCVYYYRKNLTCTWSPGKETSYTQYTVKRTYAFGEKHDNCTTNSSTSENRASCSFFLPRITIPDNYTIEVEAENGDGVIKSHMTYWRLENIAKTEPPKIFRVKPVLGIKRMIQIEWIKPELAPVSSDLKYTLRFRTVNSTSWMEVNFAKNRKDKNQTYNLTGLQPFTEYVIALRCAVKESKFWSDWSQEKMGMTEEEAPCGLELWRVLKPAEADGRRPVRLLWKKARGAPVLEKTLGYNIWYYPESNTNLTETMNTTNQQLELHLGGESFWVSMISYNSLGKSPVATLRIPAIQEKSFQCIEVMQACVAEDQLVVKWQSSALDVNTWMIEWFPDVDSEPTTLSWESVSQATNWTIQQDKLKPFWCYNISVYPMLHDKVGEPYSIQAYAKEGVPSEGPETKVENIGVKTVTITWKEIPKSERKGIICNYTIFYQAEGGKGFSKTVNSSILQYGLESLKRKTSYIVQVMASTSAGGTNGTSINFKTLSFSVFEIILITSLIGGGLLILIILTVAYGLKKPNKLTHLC
Procedure: (§1) Human IL-31 (R&D Systems) was labeled with FMAT Blue Monofunctional Reactive Dye (Applied Biosystems). 100 μl of hIL-31 prepared at 0.5 mg/ml using 50 mM sodium phosphate buffer (pH 8.0) was mixed with 5.25 μl of 25 nmoles FMAT Blue dissolved in DMSO (Junsei). After vortexing, the mixture was allowed to stand at room temperature for 15 minutes. The FMAT Blue-conjugating reaction with hIL-31 was terminated by adding 5 μl of 1 M Tris-HCl (pH 7.4) and 1.1 μl of 10% Tween20, and then FMAT Blue-labeled hIL-31 and unreacted FMAT Blue were separated by gel filtration using Superdex 75 (GE Healthcare, 17-0771-01) column with 0.1% Tween20/PBS developing solution.
(§2) Antibodies were assessed for the activity of inhibiting the IL-31/NR10 binding by using hNR10-expressing CHO cells as described below. The chimeric NS22 antibody and NS22_H0L0 (H chain, H0-SKSC/SEQ ID NO: 54; L chain, L0/SEQ ID NO: 56) were diluted at an appropriate concentration using Assay buffer (10 mM HEPES, 140 mM NaCl, 2.5 mM CaCl₂, 3 mM MgCl₂, 2% FBS, 0.01% NaN₃, pH7.4), and further eight serial dilutions were prepared at a common dilution ration of 2. The dilutions were added at 40 μl/well to plates (96-Well FMAT Plates, Applied Biosystems). Then, FMAT Blue-labeled hIL-31 was diluted 400 times with Assay buffer, and added at 20 μl/well. Finally, a cell suspension adjusted to 2.5×10⁵ cells/ml using Assay buffer was added at 40 μl/well (final 1×10⁴ cells/well). Two hours after addition of cells, the fluorescence (FL1) was measured using the 8200 Cellular Detection System (Applied Biosystems).

[2] = molecular target: T1, cytoplasmic domain-lacking human NR10 …; assay: FMAT competition on hNR10-expressing CHO cells: unlabeled chimeric antibody titrated against 8.8x10^-2 µg/ml FMAT Blue-NS22; FL1 = cell-bound labeled NS22
Procedure: The antibody NS22 purified from a hybridoma culture supernatant was labeled with FMAT Blue (Applied Biosystems, 4328853). 170 μl of NS22 prepared at 1 mg/ml in PBS was mixed with 17 μl of 1 M NaHCO₃ solution and 3.4 μl of FMAT Blue (17 nmoles) dissolved in DMSO. After vortexing, the mixture was allowed to stand at room temperature for 30 minutes. The FMAT Blue conjugating reaction with NS22 was terminated by adding 8 μl of 1 M Tris-HCl (pH 7.4) and 1.9 μl of 1% Tween 20, and then FMAT Blue-labeled NS22 (FMAT Blue-NS22) and unreacted FMAT Blue were separated by gel filtration using Superdex 75 (GE Healthcare, 17-0771-01) column with 0.01% Tween20/PBS developing solution.
Each antibody was examined for inhibition of the binding of the prepared FMAT Blue-NS22 to hNR10-expressing CHO cells (Referential Example 3) using the 8200 Cellular Detection System (Applied Biosystems, 4342920). The chimeric anti-NR10 antibodies (the constant region of each is γ1, κ) were added at various concentrations to each well containing 7500 cells and 8.8×10⁻² μg/ml FMAT Blue-NS22. The cells were allowed to stand in the dark for four hours, and then the fluorescent signal from FMAT Blue bound to the cells was measured. […] The fluorescence value FL1, which represents the binding of FMAT Blue-NS22 to NR10-expressing cells, was reduced with the increase in the concentration of antibody NS22 or NS23.

[3] = molecular target: T1, cytoplasmic domain-lacking human NR10 …; assay: FMAT competition on hNR10-expressing CHO cells: antibody titrated against FMAT Blue-labeled hIL-31; FL1 = cell-bound labeled hIL-31; remark: listed apart in the source
Procedure: as §1
NS22 and NA633 (the constant region of each is γ1, κ) were diluted at an appropriate concentration using Assay buffer (10 mM HEPES, 140 mM NaCl, 2.5 mM CaCl₂, 3 mM MgCl₂, 2% FBS, 0.01% NaN₃), and then seven serial dilutions were prepared at a common dilution ratio of 2. The dilutions were added at 40 μl/well to plates (96-Well FMAT Plates; Applied Biosystems). Then, FMAT Blue-labeled hIL-31 was diluted 400 times with Assay buffer and added at 20 μl/well. Finally, cell suspensions adjusted to 2.5×10⁵ cells/ml using Assay buffer were added at 40 μl/well (final 1×10⁴ cells/well). Two hours after addition of cells, the fluorescence (FL1) was determined using the 8200 Cellular Detection System (Applied Biosystems).

[4] = molecular target: T1, cytoplasmic domain-lacking human NR10 …; assay: FMAT competition on hNR10-expressing CHO cells: antibody titrated against FMAT Blue-labeled hIL-31; FL1 = cell-bound labeled hIL-31; mean±S.D. (n=3)
Procedure: as §2
Each variant was tested for the activity of inhibiting the hIL-31/hNR10 binding by using FMAT. The test was carried out according to the method as described in Example 4.

[5] = molecular target: T2, rhNR10 (recombinant human NR10) (human, UniProt Q8NI17 20-519, limits assumed); assay: SPR, Biacore T100; antibody captured on Protein A, rhNR10 as analyte
T2 construct: also called IL-31 receptor; IL31RA
T2 sequence: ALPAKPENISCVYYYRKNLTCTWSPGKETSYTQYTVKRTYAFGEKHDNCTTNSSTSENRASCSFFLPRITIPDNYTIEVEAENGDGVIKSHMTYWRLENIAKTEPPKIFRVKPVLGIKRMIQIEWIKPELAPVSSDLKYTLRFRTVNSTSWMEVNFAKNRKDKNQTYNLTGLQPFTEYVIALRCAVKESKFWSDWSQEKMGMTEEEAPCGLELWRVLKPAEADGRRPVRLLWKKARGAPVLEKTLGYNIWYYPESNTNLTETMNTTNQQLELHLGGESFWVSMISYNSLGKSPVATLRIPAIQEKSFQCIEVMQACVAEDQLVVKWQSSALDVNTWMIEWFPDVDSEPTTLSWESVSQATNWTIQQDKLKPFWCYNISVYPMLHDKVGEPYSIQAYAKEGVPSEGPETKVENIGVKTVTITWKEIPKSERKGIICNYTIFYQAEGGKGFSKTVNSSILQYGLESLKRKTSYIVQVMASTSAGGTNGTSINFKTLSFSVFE
Procedure: (§3) Kinetic analysis of the antigen-antibody reaction was carried out using Biacore T100 (GE Healthcare Biosciences). The antigen-antibody interaction was measured by immobilizing rec-Protein A (hereinafter Protein A) (ZYMED) onto a sensor chip, capturing an antibody on the immobilized Protein A, and then reacting the antigen as an analyte. Various concentrations of rhNR10 were used as the antigen. The kinetic parameters, association rate constant kₐ (1/Ms) and dissociation rate constant kd (1/s), were calculated from the sensorgrams obtained by the measurement. Then, KD (M) was determined based on the rate constants. Each parameter was determined using Biacore T100 Evaluation Software version 1.1 (GE Healthcare Biosciences).
(§4) The running buffer used was HBS-EP+. Each antibody was prepared at 0.25 μg/ml, or prepared so that about 100 RU would bind to Protein A. rhNR10 used as an analyte was prepared at 0, 38.5, 77.0, and 154 nM, or at 0, 19.25, and 77.01 nM using HBS-EP+. In the measurement, first, the antibody solution was captured on Protein A, and an analyte solution was reacted at a flow rate of 20 μL/min for three minutes. Then, the solution was switched to HBS-EP+, and the dissociation phase was measured for five minutes. After measurement of the dissociation phase, the sensor chip was regenerated by washing with 10 mM glycine-HCl (pH 1.5). The obtained sensorgrams were kinetically analyzed using the Biacore-specific data analysis software, Biacore T100 Evaluation Software Version 1.1.

[6] = molecular target: T2, rhNR10 (recombinant human NR10); assay: as above; remark: listed apart in the source
Procedure: as §3, §4

[7] = molecular target: T2, rhNR10 (recombinant human NR10); assay: as above; remark: listed apart in the source
Procedure: as §3, §4

B1: chimeric NS22 (human gamma1, kappa) (antibody, V domains shown)
VH: EVQLQQSGPELVKPGASMKISCKASGYSFTGYIMNWVKQSHGKNLEWIGLINPYNGGTSYNQKFKGKATLTVDKSSSTAYMELLSLTSEDSAVYYCARDGYDDGPYTMDYWGQGTSVTVSS
VL: DIQMTQSPASLSASVGETVTITCRTSENIYSFLAWYQQKQGKSPHLLVYNAKTLAKGVPSRFSGSGSGTQFSLKINSLQPEDFGSYFCQHHYESPLTFGGGTKLEIK
notes: also called chimeric NS22 antibody; the chimeric antibody
Q: Which results are given for B1?
A: IC50 (read off the curve) [1]: ~0.1 mg/L; IC50 (read off the curve) [2]: ~0.5 mg/L

B2: chimeric NS23 (human gamma1, kappa) (antibody, V domains shown)
VH: EVQLQQSGPELVKPGTSMKISCKASGYSFTGYIMNWVKQSHGKNLEWIGLINPYNGGAEYNQKFKDKATFTVDKSSSTAYMELLSLTSEDSAVYYCARDGYDDGPYTMDYWGQGTSVTVSS
VL: DIQMTQSPASLSASVGETVTFTCRANENIYSYLAWYQQKQGKSPQLLVYNAKTLAEGVPSRFSGSGSGTQFSLKINSLQPEDFGSYYCQHHYGTPPTFGGGTKLEIK
Q: For B2, which “IC50 (read off the curve)” value [2] is on record?
A: The value was about 0.5 mg/L.

B3: chimeric NA633 (human gamma1, kappa) (antibody, V domains shown)
VH: DVQLRESGPGLVKPSQSLSLTCTVTGYSITSDYAWNWIRQFPGNKLEWMGYISYSGSTSYNPSLKSRVSITRDTSKNQFFLQLNSVTTEDTATYYCAPMITTDWFFDVWGAGTTVTVSS
VL: DIVMTQSPATLSVTPGDRVSLSCRASHDISDFLHWYQQKSHESPRLLIKYASQSISGIPSRFSGSGSGSDFTLSINSVEPEDVGVYYCQNGHSFPWTFGGGTKLEIK
notes: Mouse variable regions with human constant regions (H chain gamma1)
Q: Does B3 bind [3]?
A: Result: binds

B4: humanized NS22 H0L0 with constant region SKSC (H0L0-SKSC) (antibody)
heavy: QVQLVQSGAEVKKPGASVKVSCKASGYTFTGYIMNWVRQAPGQGLEWMGLINPYNGGTSYNQKFKGRVTITADESTSTAYMELSSLRSEDTAVYYCARDGYDDGPYTMDYWGQGTLVTVSSASTKGPSVFPLAPSSKSTSESTAALGCLVKDYFPEPVTVSWNSGALTSGVHTFPAVLQSSGLYSLSSVVTVPSSNFGTQTYTCNVDHKPSNTKVDKTVERKSCVECPPCPAPPVAGPSVFLFPPKPKDTLMISRTPEVTCVVVDVSHEDPEVQFNWYVDGVEVHNAKTKPREEQFNSTFRVVSVLTVVHQDWLNGKEYKCKVSNKGLPAPIEKTISKTKGQPREPQVYTLPPSREEMTKNQVSLTCLVKGFYPSDIAVEWESNGQPENNYKTTPPMLDSDGSFFLYSKLTVDKSRWQQGNVFSCSVMHEALHNHYTQKSLSLSPGK
light: DIQMTQSPSSLSASVGDRVTITCRTSENIYSFLAWYQQKPGKAPKLLIYNAKTLAKGVPSRFSGSGSGTDFTLTISSLQPEDFATYYCQHHYESPLTFGGGTKVEIKRTVAAPSVFIFPPSDEQLKSGTASVVCLLNNFYPREAKVQWKVDNALQSGNSQESVTEQDSKDSTYSLSSTLTLSKADYEKHKVYACEVTHQGLSSPVTKSFNRGEC
Q: Which results are given for B4?
A: IC50 (read off the curve) [4]: ~0.1 mg/L; IC50 (read off the curve) [1]: ~0.1 mg/L; Kd [5]: 3.3 nM; koff [5]: 0.0012 s⁻¹; kon [5]: 370000 M⁻¹ s⁻¹; Kd [6]: 3.2 nM and 5.1 nM; koff [6]: 0.00062 s⁻¹ and 0.00074 s⁻¹; kon [6]: 190000 M⁻¹ s⁻¹ and 150000 M⁻¹ s⁻¹; Kd [7]: 3.2 nM; koff [7]: 0.00091 s⁻¹; kon [7]: 290000 M⁻¹ s⁻¹

B5: humanized NS22 H1L0 (H1-SKSC / L0) (antibody, V domains shown)
VH: QVQLVQSGAEVKKPGASVKVSCKASGYTFTGYIMNWVRQAPGQGLEWMGLINPYNGGTSYNQKFKGRVTITADKSTSTAYMELSSLRSEDTAVYYCARDGYDDGPYTMDYWGQGTLVTVSS
VL: DIQMTQSPSSLSASVGDRVTITCRTSENIYSFLAWYQQKPGKAPKLLIYNAKTLAKGVPSRFSGSGSGTDFTLTISSLQPEDFATYYCQHHYESPLTFGGGTKVEIKR
Q: Does B5 bind [1]?
A: Result: binds
